Columns and labels:
[1] = system: T1, CCCCCC(=O)SCCNC(=O)CCNC(=O)[C@H](O)C(C)(C)COP(=O)(O)OP(=O)(O)OC[C@H]1O[C@@H](n2cnc3c(N)ncnc32)[C@H](O)[C@@H]1OP(=O)(O)O; assay: purified protein; type: biochemical, Caproicibacterium lactatifermentans; settings: 200 mM sodium acetate, 100 mM potassium phosphate pH 7, 25 °C
T1 construct: full-length, N-terminal His tag, pET28a, E. coli BL21 (DE3), Ni-NTA; gene 1344 bp, 49 kDa; predicted active site GGQLDFVLGAYL 342-353; homotetramer in model only

[2] = system: T2, CCCC(=O)SCCNC(=O)CCNC(=O)[C@H](O)C(C)(C)COP(=O)(O)OP(=O)(O)OC[C@H]1O[C@@H](n2cnc3c(N)ncnc32)[C@H](O)[C@@H]1OP(=O)(O)O; assay: purified protein; type: biochemical, Caproicibacterium lactatifermentans; settings: 200 mM sodium acetate, 100 mM potassium phosphate pH 7, 25 °C
T2 construct: full-length, N-terminal His tag, pET28a, E. coli BL21 (DE3), Ni-NTA; gene 1344 bp, 49 kDa; predicted active site GGQLDFVLGAYL 342-353; homotetramer in model only

Chain of CPB6-CoAT (CCoAT) (Caproicibacterium lactatifermentans; A351P) (chain, as listed by the source A351P): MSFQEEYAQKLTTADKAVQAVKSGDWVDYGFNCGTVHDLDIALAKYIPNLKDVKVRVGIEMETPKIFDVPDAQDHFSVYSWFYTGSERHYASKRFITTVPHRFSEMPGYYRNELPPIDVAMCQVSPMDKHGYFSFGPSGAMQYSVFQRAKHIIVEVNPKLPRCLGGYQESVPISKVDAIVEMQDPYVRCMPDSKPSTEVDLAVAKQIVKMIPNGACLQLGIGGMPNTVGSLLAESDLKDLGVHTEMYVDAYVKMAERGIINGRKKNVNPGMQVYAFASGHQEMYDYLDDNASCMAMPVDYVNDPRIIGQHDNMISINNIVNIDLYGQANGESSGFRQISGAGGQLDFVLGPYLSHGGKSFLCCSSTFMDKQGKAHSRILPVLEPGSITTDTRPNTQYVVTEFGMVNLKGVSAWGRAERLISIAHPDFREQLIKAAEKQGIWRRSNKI
Chain of CPB6-CoAT (CCoAT) (Caproicibacterium lactatifermentans) (chain, as listed by the source): as the sequence (chain, as listed by the source A351P) above, with P351A counted along it
Chain of CPB6-CoAT (CCoAT) (Caproicibacterium lactatifermentans; D346H) (chain, as listed by the source D346H): as the sequence (chain, as listed by the source A351P) above, with D346H, P351A counted along it

Substance: CPB6-CoAT (CCoAT) (Caproicibacterium lactatifermentans; D346H)
- Km [1]: 748 ± 7.9 µM
- kcat [1]: 0.0707 ± 0.00333 s⁻¹
- kcat/Km [1]: 94.3 ± 1.67 M⁻¹ s⁻¹
- Km [2]: 747 ± 2.8 µM
- kcat [2]: 0.0217 ± 0.00333 s⁻¹
- kcat/Km [2]: 28.8 ± 1.67 M⁻¹ s⁻¹

Substance: CPB6-CoAT (CCoAT) (Caproicibacterium lactatifermentans)
- Km [1]: 359 ± 5.3 µM
- kcat [1]: 0.245 ± 0.015 s⁻¹
- kcat/Km [1]: 685 ± 3.33 M⁻¹ s⁻¹
- Km [2]: 537 ± 10 µM
- kcat [2]: 0.0968 ± 0.025 s⁻¹
- kcat/Km [2]: 180 ± 3.33 M⁻¹ s⁻¹

Substance: CPB6-CoAT (CCoAT) (Caproicibacterium lactatifermentans; A351P)
- Km [1]: 532 ± 2.5 µM
- kcat [1]: 0.113 ± 0.02 s⁻¹
- kcat/Km [1]: 213 ± 8.33 M⁻¹ s⁻¹
- Km [2]: 623 ± 4.4 µM
- kcat [2]: 0.0498 ± 0.015 s⁻¹
- kcat/Km [2]: 80 ± 3.33 M⁻¹ s⁻¹

From PMC8360832, “Butyryl/Caproyl-CoA:Acetate CoA-transferase: cloning, expression and characterization of the key enzyme involved in medium-chain fatty acid biosynthesis” (Bioscience Reports, 2021)
